From US20150203577A1 (Chugai, published 2015)
Positions count from the first letter of the chain named.

T1: mouse FcγRIII extracellular domain, C-terminally His-tagged (mouse, UniProt P08508 31-215)
T1 construct: the whole entry is named; also called mFcγRIII; mFcgRIII
T1 chain: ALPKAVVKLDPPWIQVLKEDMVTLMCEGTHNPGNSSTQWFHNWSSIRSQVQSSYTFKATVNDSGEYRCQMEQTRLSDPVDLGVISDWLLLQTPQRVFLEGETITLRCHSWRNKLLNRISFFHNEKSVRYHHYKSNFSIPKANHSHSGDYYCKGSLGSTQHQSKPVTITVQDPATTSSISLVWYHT

T2: mouse FcγRII extracellular domain, C-terminally His-tagged (mouse, UniProt P08101 30-210)
T2 construct: the whole entry is named; also called mFcγRII; mFcgRII
T2 sequence: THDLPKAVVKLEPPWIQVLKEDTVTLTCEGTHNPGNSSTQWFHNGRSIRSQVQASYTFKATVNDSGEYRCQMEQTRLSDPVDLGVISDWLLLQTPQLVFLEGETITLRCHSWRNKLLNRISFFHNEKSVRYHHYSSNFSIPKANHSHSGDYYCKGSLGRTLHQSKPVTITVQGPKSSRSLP

T3: mouse FcγRIII (mouse, UniProt P08508 31-215)
T3 construct: also called mFcγRIII; mFcgRIII
T3 chain: T1 chain

T4: mouse FcγRII (mouse, UniProt P08101 30-210)
T4 construct: also called mFcγRII; mFcgRII
T4 sequence: T2 sequence

B1: H237-MB498/MRAL-k0 (antibody, mouse IgG1, kappa)
heavy: QVQLQESGPGLVKPSETLSLTCAVSGHSISHDHAWSWVRQPPGEGLEWIGFISYSGITNYNPSLQGRVTISRDNSKNTLYLQMNSLRAEDTAVYYCARSLARTTAMDYWGEGTLVTVSSAKTTPPSVYPLAPGSAAQTNSMVTLGCLVKGYFPEPVTVTWNSGSLSSGVHTFPAVLQSDLYTLSSSVTVPSSTWPSETVTCNVAHPASSTKVDKKIVPRDCGCKPCICEPNEVEDVFIFPPKPKDVLTITLTPKVTCVVVDISKDDPEVQFSWFVDDVEVHTAQTQPREEQFNLTFRSVSELPIMHQDWLNGKEFKCRVDSAAFPAPIERTISKTKGRPKAPQVYTIPPPKEQMAKDKVSLTCMITDFFPEDITVEWQWNGQPAENYKNTQPIMDTDGSYFVYSKLNVQKSNWEAGNTFTCSVLHEGLHNHHTEKSLSHSPGK
light: not shown
notes: copies: 2 + 2
B2: H237-MB497/MRAL-k0 (antibody, mouse IgG1, kappa)
heavy: B1 heavy with L294S
light: not shown
notes: copies: 2 + 2
B3: H237-MB499/MRAL-k0 (antibody, mouse IgG1, kappa)
heavy: B1 heavy with L294M
light: not shown
notes: copies: 2 + 2
B4: H237-MB290/MRAL-k0 (antibody, mouse IgG1, kappa)
heavy: B1 heavy with E229T, P230A, N231P, E234S, L294S, D320N, R330K
light: not shown
notes: copies: 2 + 2
B5: MB307 (antibody)
heavy: B1 heavy with E229T, P230A, N231P, E234S, V236E, L294S, D320N, R330K
light: not shown
notes: copies: 2 + 2
B6: MB300 (antibody, mouse IgG1, kappa)
heavy: B1 heavy with P230D, N231P, E234S, L294S, D320N, R330K
light: not shown
notes: copies: 2 + 2
B7: H237-MB337/MRAL-k0 (antibody, mouse IgG1, kappa)
heavy: B1 heavy with P230A, N231P, L294S, D320N, R330K
light: not shown
notes: copies: 2 + 2
B8: MB303 (antibody, mouse IgG1, kappa)
heavy: B1 heavy with P230V, N231P, E234S, V236E, L294S, D320N, R330K
light: not shown
notes: copies: 2 + 2
B9: MB291 (antibody, mouse IgG1, kappa)
heavy: B1 heavy with E229T, P230D, N231P, E234S, L294S, D320N, R330K
light: not shown
notes: copies: 2 + 2
B10: MB299 (antibody, mouse IgG1, kappa)
heavy: B1 heavy with P230A, N231P, E234S, L294S, D320N, R330K
light: not shown
notes: copies: 2 + 2
B11: MB301 (antibody, mouse IgG1, kappa)
heavy: B1 heavy with P230V, N231E, E234S, L294S, D320N, R330K
light: not shown
notes: copies: 2 + 2
B12: MB289 (antibody, mouse IgG1, kappa)
heavy: B1 heavy with P230V, N231P, E234S, L294S, D320N, R330K
light: not shown
notes: copies: 2 + 2
B13: MB306 (antibody, mouse IgG1, kappa)
heavy: B1 heavy with E229T, P230A, N231P, L294S, D320N, R330K
light: not shown
notes: copies: 2 + 2
B14: MB310 (antibody, mouse IgG1, kappa)
heavy: B1 heavy with E229T, P230D, N231P, L294S, D320N, R330K
light: not shown
notes: copies: 2 + 2
B15: MB295 (antibody, mouse IgG1, kappa)
heavy: B1 heavy with E229T, P230V, N231P, E234S, V236H, L294S, D320N, R330K
light: not shown
notes: copies: 2 + 2
B16: MB309 (antibody, mouse IgG1, kappa)
heavy: B1 heavy with E229T, P230D, N231E, E234S, L294S, D320N, R330K
light: not shown
notes: copies: 2 + 2
B17: MB304 (antibody, mouse IgG1, kappa)
heavy: B1 heavy with P230V, N231P, E234S, V236H, L294S, D320N, R330K
light: not shown
notes: copies: 2 + 2
B18: H237-MB305/MRAL-k0 (antibody, mouse IgG1, kappa)
heavy: B1 heavy with E229T, P230A, N231E, E234S, L294S, D320N, R330K
light: not shown
notes: copies: 2 + 2
B19: MB294 (antibody, mouse IgG1, kappa)
heavy: B1 heavy with E229T, P230V, N231P, E234S, V236E, L294S, D320N, R330K
light: not shown
notes: copies: 2 + 2
B20: H237-MB302/MRAL-k0 (antibody, mouse IgG1, kappa)
heavy: B1 heavy with P230V, N231P, L294S, D320N, R330K
light: not shown
notes: copies: 2 + 2
B21: MB293 (antibody, mouse IgG1, kappa)
heavy: B1 heavy with E229T, P230V, N231P, L294S, D320N, R330K
light: not shown
notes: copies: 2 + 2
B22: MB296 (antibody, mouse IgG1, kappa)
heavy: B1 heavy with E229T, P230V, N231P, E234S, S263A, L294S, D320N, R330K
light: not shown
notes: copies: 2 + 2
B23: MB292 (antibody, mouse IgG1, kappa)
heavy: B1 heavy with E229T, P230V, N231E, E234S, L294S, D320N, R330K
light: not shown
notes: copies: 2 + 2
B24: MB308 (antibody, mouse IgG1, kappa)
heavy: B1 heavy with E229T, P230A, N231P, E234S, V236H, L294S, D320N, R330K
light: not shown
notes: copies: 2 + 2

Target: T1, mouse FcγRIII extracellular domain, …
Experiment: SPR Biacore T200, KD ratio

relative mFcγRIII-binding activity (MB390 = 1) [fold]	relative mFcγRIII-binding activity (mIgG1 = 1) [fold]	Binder
7.15	85.1	B1
1.32	15.7	B2
2.03	24.2	B3

target: T2, mouse FcγRII extracellular domain, …; experiment: SPR Biacore T200, KD ratio

relative mFcγRII-binding activity (MB390 = 1) [fold]	relative mFcγRII-binding activity (mIgG1 = 1) [fold]	Binder
6.4	3340	B1
1.48	773	B2
1.9	992	B3

Target: T3, mouse FcγRIII
Experiment: SPR Biacore T200, KD ratio
Description: (§1) The antibody H chain variable region used was the variable region H237 (SEQ ID NO: 1) of the H chain VH3-IgG1 of the anti-IL-6 receptor antibody Fv4-IgG1 described in WO2009/125825. The antibody L chain commonly used was the L chain MRAL-k0 (SEQ ID NO: 2) of the anti-IL-6 receptor antibody tocilizumab. […] The resulting variant group was designated as MB110 variants. These variants were expressed and purified by the method of Reference Example 1 and evaluated for their binding to mFcγRII and mFcγRIII by the method of Reference Example 2 using Biacore T200.
(§2) Each altered antibody was analyzed for its interaction with each Fcγ receptor prepared above using Biacore T100 (GE Healthcare Japan Corp.), Biacore T200 (GE Healthcare Japan Corp.), Biacore A100, or Biacore 4000. The running buffer used was HBS-EP+ (GE Healthcare Japan Corp.). The assay temperature was set to 25° C. The sensor chips used were chips prepared by immobilizing Protein L (ACTIGEN or BioVision) onto Series S Sensor Chip CM5 (GE Healthcare Japan Corp.) or Series S Sensor Chip CM4 (GE Healthcare Japan Corp.) by the amine coupling method.
(§3) In order to calculate the KD value of each altered antibody for FcγR, kinetic analysis was conducted according to the following method: first, the antibody of interest was captured onto any of these chips and allowed to interact with mFcγR diluted with a running buffer. For the obtained sensorgram, the assay results were globally fit into the 1:1 Langmuir binding model using Biacore Evaluation Software to calculate an association rate constant ka (L/mol/s) and a dissociation rate constant kd (1/s). From these values, the dissociation constant KD (mol/L) was calculated.

Relative mFcγRIII-binding activity (MB110 = 1) [fold]	relative mFcγRIII-binding activity (mIgG1 = 1) [fold]	Binder
1.37	5.5	B4
0.55	2.2	B5
1.41	5.7	B6
1.15	4.6	B7
0.32	1.3	B8
1.66	6.7	B9
1.61	6.5	B10
1.16	4.6	B11
1.23	4.9	B12
1.05	4.2	B13
0.96	3.8	B14
0.42	1.7	B15
0.96	3.9	B16
0.5	2	B17
0.94	3.8	B18
0.47	1.9	B19
1.11	4.5	B20
1.01	4.1	B21
1.39	5.6	B22
1.02	4.1	B23
0.67	2.7	B24

target: T4, mouse FcγRII; experiment: SPR Biacore T200, KD ratio
Description: as §1, §2, §3

Relative mFcγRII-binding activity (MB110 = 1) [fold]	relative mFcγRII-binding activity (mIgG1 = 1) [fold]	Binder
2.16	26.5	B4
0.92	11.3	B5
4.25	52.3	B6
5.98	73.4	B7
0.64	7.8	B8
3.47	42.6	B9
4.96	60.8	B10
3.52	43.2	B11
3.57	43.8	B12
5.36	65.8	B13
3.16	38.8	B14
0.62	7.6	B15
2.27	27.9	B16
1.11	13.7	B17
2.12	26	B18
0.62	7.6	B19
4.37	53.7	B20
3.25	39.9	B21
1.71	21	B22
2.82	34.6	B23
2.14	26.3	B24
